Measured values published in publication PMC10397247.

How the values were obtained:
[1] = target: T1, 4H967-bN; experiment: two-hybrid library CCNG1;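 further: natural log of median RNA to DNA barcode read ratio; higher means stronger binding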
T1 chain: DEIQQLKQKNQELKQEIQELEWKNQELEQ

[2] = target: T2, O13-bP; experiment: two-hybrid library CCNG1;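 further: natural log of median RNA to DNA barcode read ratio; higher means stronger binding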
T2 chain: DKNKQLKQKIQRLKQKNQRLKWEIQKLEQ

[3] = target: T3, 4H883-bN; experiment: two-hybrid library CCNG1;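 further: natural log of median RNA to DNA barcode read ratio; higher means stronger binding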
T3 chain: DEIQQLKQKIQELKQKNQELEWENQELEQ

[4] = target: T4, 4H797-bN; experiment: two-hybrid library CCNG1;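 further: natural log of median RNA to DNA barcode read ratio; higher means stronger binding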
T4 chain: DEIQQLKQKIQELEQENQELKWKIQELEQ

[5] = target: T5, 4H953-bN; experiment: two-hybrid library CCNG1
T5 chain: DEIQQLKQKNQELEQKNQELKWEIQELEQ

[6] = target: T6, 4H918-bN; experiment: two-hybrid library CCNG1
T6 chain: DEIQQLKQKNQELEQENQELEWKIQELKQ

[7] = target: T7, 4H754-bN; experiment: two-hybrid library CCNG1
T7 chain: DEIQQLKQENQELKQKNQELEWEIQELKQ

[8] = target: T8, 4H908-bN; experiment: two-hybrid library CCNG1
T8 chain: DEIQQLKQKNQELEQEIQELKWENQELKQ

[9] = target: T9, 4H72-bN; experiment: two-hybrid library CCNG1
T9 chain: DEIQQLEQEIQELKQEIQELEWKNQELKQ

[10] = target: T10, O8-bS; experiment: two-hybrid library CCNG1
T10 chain: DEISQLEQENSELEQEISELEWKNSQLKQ

[11] = target: T11, O15-bS; experiment: two-hybrid library CCNG1
T11 chain: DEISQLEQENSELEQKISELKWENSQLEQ

[12] = target: T12, O5-bS; experiment: two-hybrid library CCNG1
T12 chain: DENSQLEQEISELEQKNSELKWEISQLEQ

[13] = target: T13, O13-bS; experiment: two-hybrid library CCNG1
T13 chain: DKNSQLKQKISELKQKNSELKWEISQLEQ

[14] = target: T14, O4-bS; experiment: two-hybrid library CCNG1
T14 chain: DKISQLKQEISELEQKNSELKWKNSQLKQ

[15] = target: T15, O9-bS; experiment: two-hybrid library CCNG1
T15 chain: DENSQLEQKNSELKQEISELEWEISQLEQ

[16] = target: T16, O2-bS; experiment: two-hybrid library CCNG1
T16 chain: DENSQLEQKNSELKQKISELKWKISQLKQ

[17] = target: T17, O6-bS; experiment: two-hybrid library CCNG1
T17 chain: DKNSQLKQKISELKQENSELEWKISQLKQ

[18] = target: T18, O3-bS; experiment: two-hybrid library CCNG1
T18 chain: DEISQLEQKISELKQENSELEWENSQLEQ

[19] = target: T19, O7-bS; experiment: two-hybrid library CCNG1
T19 chain: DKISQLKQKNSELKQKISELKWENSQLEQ

[20] = target: T20, O16-bS; experiment: two-hybrid library CCNG1
T20 chain: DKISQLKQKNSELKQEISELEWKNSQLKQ

[21] = target: T21, 4H2760-AA; experiment: two-hybrid library CCmax; details: mean of both orientations
T21 chain: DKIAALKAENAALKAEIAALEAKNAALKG

[22] = target: T22, 4H1593-AA; experiment: two-hybrid library CCmax; details: mean of both orientations
T22 chain: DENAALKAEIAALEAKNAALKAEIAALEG

[23] = target: T23, 4H3094-AA; experiment: two-hybrid library CCmax; details: mean of both orientations
T23 chain: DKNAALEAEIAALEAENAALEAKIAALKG

[24] = target: T24, 4H235-AA; experiment: two-hybrid library CCmax; details: mean of both orientations
T24 chain: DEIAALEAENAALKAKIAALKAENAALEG

[25] = target: T25, 4H2903-AA; experiment: two-hybrid library CCmax; details: mean of both orientations
T25 chain: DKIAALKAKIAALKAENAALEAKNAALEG

[26] = target: T26, 4H341-AA; experiment: two-hybrid library CCmax
T26 chain: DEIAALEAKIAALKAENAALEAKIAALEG

[27] = target: T27, 4H3629-AA; experiment: two-hybrid library CCmax; details: mean of both orientations
T27 chain: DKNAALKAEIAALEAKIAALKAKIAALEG

[28] = target: T28, 4H380-AA; experiment: two-hybrid library CCmax; details: mean of both orientations
T28 chain: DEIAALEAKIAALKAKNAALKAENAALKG

[29] = target: T29, 4H2961-AA; experiment: two-hybrid library CCmax; details: mean of both orientations
T29 chain: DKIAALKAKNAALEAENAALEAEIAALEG

[30] = target: T30, 4H2604-AA; experiment: two-hybrid library CCmax; details: mean of both orientations
T30 chain: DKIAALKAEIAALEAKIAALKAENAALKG

[31] = target: T31, 4H2947-AA; experiment: two-hybrid library CCmax; details: mean of both orientations
T31 chain: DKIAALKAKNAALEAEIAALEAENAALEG

[32] = target: T32, 4H3049-AA; experiment: two-hybrid library CCmax; details: mean of both orientations
T32 chain: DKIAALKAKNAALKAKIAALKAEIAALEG

[33] = target: T33, 4H446-AA; experiment: two-hybrid library CCmax; details: mean of both orientations
T33 chain: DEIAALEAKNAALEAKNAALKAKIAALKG

[34] = target: T34, 4H3974-AA; experiment: two-hybrid library CCmax; details: mean of both orientations
T34 chain: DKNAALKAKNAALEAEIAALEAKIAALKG

[35] = target: T35, 4H324-AA; experiment: two-hybrid library CCmax; details: mean of both orientations
T35 chain: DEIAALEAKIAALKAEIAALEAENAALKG

[36] = target: T36, 4H2580-AA; experiment: two-hybrid library CCmax; details: mean of both orientations
T36 chain: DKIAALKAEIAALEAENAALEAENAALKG

[37] = target: T37, 4H1878-AA; experiment: two-hybrid library CCmax; details: mean of both orientations
T37 chain: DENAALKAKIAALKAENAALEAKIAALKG

[38] = target: T38, 4H3449-AA; experiment: two-hybrid library CCmax; details: mean of both orientations
T38 chain: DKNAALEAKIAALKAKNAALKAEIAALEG

[39] = target: T39, 4H63-AA; experiment: two-hybrid library CCmax; details: mean of both orientations
T39 chain: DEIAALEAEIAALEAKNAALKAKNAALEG

[40] = target: T40, 4H2621-AA; experiment: two-hybrid library CCmax; details: mean of both orientations
T40 chain: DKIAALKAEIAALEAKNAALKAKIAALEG

[41] = target: T41, 4H3915-AA; experiment: two-hybrid library CCmax; details: mean of both orientations
T41 chain: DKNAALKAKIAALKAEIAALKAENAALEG

[42] = target: T42, 4H249-AA; experiment: two-hybrid library CCmax; details: mean of both orientations
T42 chain: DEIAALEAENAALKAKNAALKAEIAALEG

[43] = target: T43, 4H2774-AA; experiment: two-hybrid library CCmax; details: mean of both orientations
T43 chain: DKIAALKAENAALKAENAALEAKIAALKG

[44] = target: T44, 4H432-AA; experiment: two-hybrid library CCmax; details: mean of both orientations
T44 chain: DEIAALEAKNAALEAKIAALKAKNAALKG

[45] = target: T45, 4H1449-AA; experiment: two-hybrid library CCmax
T45 chain: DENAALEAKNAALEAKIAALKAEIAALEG

[46] = target: T46, 4H3619-AA; experiment: two-hybrid library CCmax; details: mean of both orientations
T46 chain: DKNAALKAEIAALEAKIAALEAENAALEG

[47] = target: T47, 4H3777-AA; experiment: two-hybrid library CCmax; details: mean of both orientations
T47 chain: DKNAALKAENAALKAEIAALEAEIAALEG

[48] = target: T48, 4H932-bN; experiment: two-hybrid library CCNG1
T48 chain: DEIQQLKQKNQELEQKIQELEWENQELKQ

[49] = target: T49, 4H796-bN; experiment: two-hybrid library CCNG1
T49 chain: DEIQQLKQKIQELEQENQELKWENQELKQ

[50] = target: T50, 4H3297-bN; experiment: two-hybrid library CCNG1
T50 chain: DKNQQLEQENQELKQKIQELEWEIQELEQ

[51] = target: T51, 4H949-bN; experiment: two-hybrid library CCNG1
T51 chain: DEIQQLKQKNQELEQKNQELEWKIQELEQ

[52] = target: T52, 4H3364-bN; experiment: two-hybrid library CCNG1
T52 chain: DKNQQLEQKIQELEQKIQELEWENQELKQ

[53] = target: T53, 4H3381-bN; experiment: two-hybrid library CCNG1
T53 chain: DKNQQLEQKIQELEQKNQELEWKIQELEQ

[54] = target: T54, P1bHq; experiment: two-hybrid library CCNG1
T54 chain: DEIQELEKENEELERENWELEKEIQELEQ

[55] = target: T55, 4H730-bN; experiment: two-hybrid library CCNG1
T55 chain: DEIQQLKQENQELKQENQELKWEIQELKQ

[56] = target: T56, 4H56-bN; experiment: two-hybrid library CCNG1
T56 chain: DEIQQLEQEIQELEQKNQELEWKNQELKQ

[57] = target: T57, 4H3041-bN; experiment: two-hybrid library CCNG1
T57 chain: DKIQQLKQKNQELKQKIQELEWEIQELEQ

[58] = target: T58, 4H349-bN; experiment: two-hybrid library CCNG1
T58 chain: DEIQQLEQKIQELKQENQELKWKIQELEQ

B1: 4H72-bN (peptide)
chain: DEIQQLEQEIQELKQEIQELEWKNQELKQ
How did the interaction score [1] turn out when B1 was run?
The interaction score was -0.25.

What about the interaction score [2] of the same binder?
The interaction score was -0.283.

And the interaction score [3]?
Its interaction score is 0.619.

And the interaction score [4]?
Its interaction score is 0.632.

What about the interaction score [5] of the same binder?
The interaction score was -0.727.

What about the interaction score [6] of the same binder?
The interaction score was 0.713.

What about the interaction score [7] of the same binder?
The interaction score was -1.48.

And the interaction score [8]?
Its interaction score is -0.234.

And the interaction score [9]?
The interaction score was 0.334.

B2: O13-bS (peptide)
chain: DKNSQLKQKISELKQKNSELKWEISQLEQ
For B2, which interaction score [10] is on record?
Its interaction score is -1.08.

What about the interaction score [11] of the same binder?
The interaction score was -2.27.

And the interaction score [12]?
The interaction score was -2.23.

And the interaction score [13]?
Its interaction score is -1.65.

And the interaction score [14]?
The interaction score was -2.17.

And the interaction score [15]?
The interaction score was -1.08.

And the interaction score [16]?
The interaction score was -0.819.

And the interaction score [17]?
The interaction score was -0.545.

And the interaction score [18]?
The interaction score was -1.55.

And the interaction score [19]?
Its interaction score is -1.16.

What about the interaction score [20] of the same binder?
The interaction score was -1.78.

B3: 4H1449-AA (peptide)
chain: DENAALEAKNAALEAKIAALKAEIAALEG
For B3, which interaction score [21] is on record?
The interaction score was -1.16.

And the interaction score [22]?
The interaction score was -1.66.

And the interaction score [23]?
The interaction score was -1.53.

What about the interaction score [24] of the same binder?
Its interaction score is -1.93.

And the interaction score [25]?
The interaction score was -1.54.

What about the interaction score [26] of the same binder?
Its interaction score is -1.74.

What about the interaction score [27] of the same binder?
The interaction score was -0.319.

What about the interaction score [28] of the same binder?
Its interaction score is -1.53.

And the interaction score [29]?
The interaction score was -1.66.

And the interaction score [30]?
The interaction score was -0.197.

And the interaction score [31]?
Its interaction score is -1.1.

What about the interaction score [32] of the same binder?
The interaction score was -0.585.

What about the interaction score [33] of the same binder?
The interaction score was -1.39.

And the interaction score [34]?
Its interaction score is 2.16.

What about the interaction score [35] of the same binder?
The interaction score was -0.72.

What about the interaction score [36] of the same binder?
Its interaction score is -0.863.

What about the interaction score [37] of the same binder?
Its interaction score is -1.34.

What about the interaction score [38] of the same binder?
Its interaction score is -1.65.

What about the interaction score [39] of the same binder?
Its interaction score is -1.09.

What about the interaction score [40] of the same binder?
Its interaction score is -0.636.

And the interaction score [41]?
Its interaction score is -1.06.

And the interaction score [42]?
The interaction score was -1.66.

And the interaction score [43]?
Its interaction score is -1.47.

And the interaction score [44]?
The interaction score was -1.57.

And the interaction score [45]?
The interaction score was -0.875.

What about the interaction score [46] of the same binder?
Its interaction score is -1.1.

And the interaction score [47]?
Its interaction score is -0.635.

B4: 4H3041-bN (peptide)
chain: DKIQQLKQKNQELKQKIQELEWEIQELEQ
Which interaction score [48] does the source give for B4 here?
Its interaction score is -1.42.

And the interaction score [49]?
The interaction score was -1.35.

What about the interaction score [50] of the same binder?
Its interaction score is -2.23.

And the interaction score [51]?
The interaction score was -1.33.

What about the interaction score [52] of the same binder?
The interaction score was -1.42.

What about the interaction score [53] of the same binder?
The interaction score was -1.06.

And the interaction score [54]?
The interaction score was 0.154.

What about the interaction score [55] of the same binder?
The interaction score was -1.37.

What about the interaction score [56] of the same binder?
The interaction score was -0.997.

And the interaction score [57]?
The interaction score was 0.754.

And the interaction score [58]?
The interaction score was -1.54.
